Measurements published in PMC9156947.

Experiments:
C10-DDB1M381/2 = experiment: tripartite Nanoluc system (luciferase complementation); conditions: HepG2 cells; co-transfected with a plasmid expressing Nano1-7; luciferase activity measured 48 h post-transfection; parent: 100%
N8-HBx = N8-HBx (UniProt P03165); experiment: as above; conditions: HepG2 cells; co-transfected with a plasmid expressing Nano1-7; luciferase activity measured 48 h post-transfection; parent: 100%
[1] = target: C10-STAU1 with the RBD2 domain deleted (UniProt O95793); experiment: split reporter (BiFC, NanoBiT); tripartite Nanoluc luciferase: C10-tagged and N8-tagged proteins co-transfected with a plasmid expressing Nano1-7 into HepG2 cells; luciferase activity measured 48 h post-transfection
C10-DDB1 = C10-DDB1 (UniProt Q16531); experiment: tripartite Nanoluc system (luciferase complementation); conditions: HepG2 cells; co-transfected with a plasmid expressing Nano1-7; luciferase activity measured 48 h post-transfection; parent: 100%
Chain of C10-DDB1 (Q16531 whole entry): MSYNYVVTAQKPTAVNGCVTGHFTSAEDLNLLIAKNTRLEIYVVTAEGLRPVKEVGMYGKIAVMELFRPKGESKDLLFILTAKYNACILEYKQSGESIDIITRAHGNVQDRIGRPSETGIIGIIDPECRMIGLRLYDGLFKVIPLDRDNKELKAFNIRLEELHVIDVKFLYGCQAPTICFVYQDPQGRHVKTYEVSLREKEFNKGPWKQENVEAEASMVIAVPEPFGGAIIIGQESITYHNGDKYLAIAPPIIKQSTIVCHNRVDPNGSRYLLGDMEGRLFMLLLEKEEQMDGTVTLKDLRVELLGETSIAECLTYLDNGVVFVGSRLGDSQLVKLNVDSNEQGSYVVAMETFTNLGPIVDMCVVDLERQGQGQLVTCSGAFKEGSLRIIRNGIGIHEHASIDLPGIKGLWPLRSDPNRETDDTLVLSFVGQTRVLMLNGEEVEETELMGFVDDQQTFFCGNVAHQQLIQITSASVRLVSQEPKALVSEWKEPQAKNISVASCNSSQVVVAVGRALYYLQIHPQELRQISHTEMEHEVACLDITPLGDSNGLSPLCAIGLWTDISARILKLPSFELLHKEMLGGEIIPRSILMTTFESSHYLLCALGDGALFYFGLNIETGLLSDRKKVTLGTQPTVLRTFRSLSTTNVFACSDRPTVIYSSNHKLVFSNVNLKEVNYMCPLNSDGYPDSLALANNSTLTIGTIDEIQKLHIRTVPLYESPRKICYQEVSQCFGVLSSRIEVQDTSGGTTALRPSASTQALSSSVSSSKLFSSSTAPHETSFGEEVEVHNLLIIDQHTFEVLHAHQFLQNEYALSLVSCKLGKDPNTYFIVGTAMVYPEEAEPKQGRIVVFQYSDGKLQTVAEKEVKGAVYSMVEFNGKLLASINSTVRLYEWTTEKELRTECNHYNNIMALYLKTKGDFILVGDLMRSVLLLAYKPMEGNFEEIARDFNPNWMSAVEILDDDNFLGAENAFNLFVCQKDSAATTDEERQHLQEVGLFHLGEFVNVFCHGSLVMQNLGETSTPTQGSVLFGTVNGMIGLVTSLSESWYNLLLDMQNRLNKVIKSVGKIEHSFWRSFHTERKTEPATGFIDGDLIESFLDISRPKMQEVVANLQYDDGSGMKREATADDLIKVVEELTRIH

m3; m4 HBx:96E; DDB1:M381/2
percent of parent (C10-DDB1M381/2): 0.2%

C10-DDB1 (from UniProt Q16531) M381/2
percent of parent (N8-HBx): 0.68%

N8-HBx (from UniProt P03165 1-154) (natural protein)
fold luminescence against wild type STAU1 [1]: 2 fold

N8-HBx (from UniProt P03165) 96E
percent of parent (C10-DDB1): 0.25%
